Assay results taken from patent publication US20220380455A1.

Key:
[1] = molecular target: cynomolgus (cyno) MS4A6A (cynomolgus); assay: flow cytometry, hybridoma supernatant, HEK293 transfected with cyno MS4A6A over parental HEK293; Screen 1
[2] = molecular target: cynomolgus (cyno) MS4A6A (cynomolgus); assay: flow cytometry, hybridoma supernatant, HEK293 transfected with cyno MS4A6A over parental HEK293; Screen 2

cynomolgus (cyno) MS4A6A (cynomolgus), sequence (Q9H2W1 other isoform, or with tags, fused parts or gaps): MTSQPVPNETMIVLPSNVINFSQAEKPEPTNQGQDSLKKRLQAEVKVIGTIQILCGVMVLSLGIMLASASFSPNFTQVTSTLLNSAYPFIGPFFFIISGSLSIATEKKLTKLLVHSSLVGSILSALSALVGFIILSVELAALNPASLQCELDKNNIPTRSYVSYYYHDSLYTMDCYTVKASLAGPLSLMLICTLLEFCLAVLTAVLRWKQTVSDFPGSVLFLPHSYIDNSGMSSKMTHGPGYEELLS

ratio of APC MFI on MS4A6A+/HEK parental cells [1]: 2.7
ratio of APC MFI on MS4A6A+/HEK parental cells [2]: 0.2
B1: 6A-20 (antibody, V domains shown)
VH: EVQLQQSGPELVKPGASVKMSCKASGYTFTDYFMKWVKQSHGKSLEWIGDINPKNGDTFYNQKFKGKATLTVDKSSSTAYMQLNSLTSEDSAVYYCARPGYFDVWGAGTTVTVSS
VL: DIVMTQAAPSVPVTPGESVSISCRSSKSLLHSDGNTYLYWFLQRPGQSPQLLIYRMSNLAPGVPDRFSGSGSGTAFTLRISRVEAEDVGVYYCMQHLEFPFIFGAGTKLELK
